Reference: patent US20180155451A1 (published 2018)

T1: FcγRIIa R (FcγRIIa, allotype R, Arg at position 131), extracellular domain with C-terminal His tag (human, UniProt P12318 34-217)
T1 construct: extracellular domain; soluble receptor used as Biacore analyte; also called 2aR; FcgRIIa R
T1 sequence (looked up): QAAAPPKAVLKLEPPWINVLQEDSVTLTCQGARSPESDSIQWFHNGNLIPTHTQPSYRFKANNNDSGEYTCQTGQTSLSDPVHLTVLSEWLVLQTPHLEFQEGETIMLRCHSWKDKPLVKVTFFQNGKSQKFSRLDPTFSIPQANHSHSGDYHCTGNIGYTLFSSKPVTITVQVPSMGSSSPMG

T2: FcγRIIb, extracellular domain with C-terminal His tag (human, UniProt P31994 43-217)
T2 construct: extracellular domain; soluble receptor used as Biacore analyte; also called 2b; FcgRIIb
T2 sequence (looked up): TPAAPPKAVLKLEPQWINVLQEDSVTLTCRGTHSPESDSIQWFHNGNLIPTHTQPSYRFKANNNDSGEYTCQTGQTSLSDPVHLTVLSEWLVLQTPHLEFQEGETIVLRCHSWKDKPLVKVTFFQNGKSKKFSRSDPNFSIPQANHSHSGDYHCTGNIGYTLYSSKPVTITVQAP


Tests used:
[1] = target: T1, FcγRIIa R (FcγRIIa, allotype R, Arg at …); experiment: Biacore SPR; He/Con_2aR divided by He/Con_2b (FcγRIIb)
[2] = target: T1, FcγRIIa R (FcγRIIa, allotype R, Arg at …); experiment: Biacore SPR; binding relative to GpH7-A5/GpH7-B3/GpL16-k0 (=100)
[3] = target: T2, FcγRIIb, extracellular domain with …; experiment: as above

Row | IIaR/IIb (He_2aR/2b) [1] | He/Con_2aR (IIaR binding) [2] | He/Con_2b (IIb binding) [3] | Binder
1 | 0.66 | 137 % of control | 206 % of control | heterodimerized antibody GpH7-A5/GpH7-B3 variant S239_09D/GpL16-k0 (antibody, human IgG1, kappa, He Ab: anti-glypican-3 IgG1, alteration in one H chain only; also called He Ab) heavy 1: not shown heavy 2: not shown light: DIVMTQSPLSLPVTPGEPASISCQASESLVHSNRNTYLHWYLQKPGQSPQLLIYKVSNRFSGVPDRFSGSGSGTDFTLKISRVEAEDVGVYYCSQNTHVPPTFGQGTKVEIERTVAAPSVFIFPPSDEQLKSGTASVVCLLNNFYPREAKVQWKVDNALQSGNSQESVTEQDSKDSTYSLSSTLTLSKADYEKHKVYACEVTHQGLSSPVTKSFNRGEC
2 | 0.75 | 135 % of control | 181 % of control | heterodimerized antibody GpH7-A5/GpH7-B3 variant S239_10E/GpL16-k0 (antibody, human IgG1, kappa, He Ab: anti-glypican-3 IgG1, alteration in one H chain only; also called He Ab) heavy 1: not shown heavy 2: not shown light: DIVMTQSPLSLPVTPGEPASISCQASESLVHSNRNTYLHWYLQKPGQSPQLLIYKVSNRFSGVPDRFSGSGSGTDFTLKISRVEAEDVGVYYCSQNTHVPPTFGQGTKVEIERTVAAPSVFIFPPSDEQLKSGTASVVCLLNNFYPREAKVQWKVDNALQSGNSQESVTEQDSKDSTYSLSSTLTLSKADYEKHKVYACEVTHQGLSSPVTKSFNRGEC
3 | 0.64 | 155 % of control | 243 % of control | heterodimerized antibody GpH7-A5/GpH7-B3 variant S267_02A/GpL16-k0 (antibody, human IgG1, kappa, He Ab: anti-glypican-3 IgG1, alteration in one H chain only; also called He Ab) heavy 1: not shown heavy 2: not shown light: DIVMTQSPLSLPVTPGEPASISCQASESLVHSNRNTYLHWYLQKPGQSPQLLIYKVSNRFSGVPDRFSGSGSGTDFTLKISRVEAEDVGVYYCSQNTHVPPTFGQGTKVEIERTVAAPSVFIFPPSDEQLKSGTASVVCLLNNFYPREAKVQWKVDNALQSGNSQESVTEQDSKDSTYSLSSTLTLSKADYEKHKVYACEVTHQGLSSPVTKSFNRGEC
4 | 0.61 | 116 % of control | 192 % of control | heterodimerized antibody GpH7-A5/GpH7-B3 variant S267_03V/GpL16-k0 (antibody, human IgG1, kappa, He Ab: anti-glypican-3 IgG1, alteration in one H chain only; also called He Ab) heavy 1: not shown heavy 2: not shown light: DIVMTQSPLSLPVTPGEPASISCQASESLVHSNRNTYLHWYLQKPGQSPQLLIYKVSNRFSGVPDRFSGSGSGTDFTLKISRVEAEDVGVYYCSQNTHVPPTFGQGTKVEIERTVAAPSVFIFPPSDEQLKSGTASVVCLLNNFYPREAKVQWKVDNALQSGNSQESVTEQDSKDSTYSLSSTLTLSKADYEKHKVYACEVTHQGLSSPVTKSFNRGEC

Further lines, the binder ahead of its results:

Row | Binder | IIaR/IIb (He_2aR/2b) [1] | He/Con_2aR (IIaR binding) [2] | He/Con_2b (IIb binding) [3]
5 | heterodimerized antibody GpH7-A5/GpH7-B3 variant P238_10E/GpL16-k0 (antibody, human IgG1, kappa, He Ab: anti-glypican-3 IgG1, alteration in one H chain only; also called He Ab) heavy 1: not shown heavy 2: not shown light: DIVMTQSPLSLPVTPGEPASISCQASESLVHSNRNTYLHWYLQKPGQSPQLLIYKVSNRFSGVPDRFSGSGSGTDFTLKISRVEAEDVGVYYCSQNTHVPPTFGQGTKVEIERTVAAPSVFIFPPSDEQLKSGTASVVCLLNNFYPREAKVQWKVDNALQSGNSQESVTEQDSKDSTYSLSSTLTLSKADYEKHKVYACEVTHQGLSSPVTKSFNRGEC | 0.65 | 151 % of control | 232 % of control
6 | heterodimerized antibody GpH7-A5/GpH7-B3 variant P238_15Y/GpL16-k0 (antibody, human IgG1, kappa, He Ab: anti-glypican-3 IgG1, alteration in one H chain only; also called He Ab) heavy 1: not shown heavy 2: not shown light: DIVMTQSPLSLPVTPGEPASISCQASESLVHSNRNTYLHWYLQKPGQSPQLLIYKVSNRFSGVPDRFSGSGSGTDFTLKISRVEAEDVGVYYCSQNTHVPPTFGQGTKVEIERTVAAPSVFIFPPSDEQLKSGTASVVCLLNNFYPREAKVQWKVDNALQSGNSQESVTEQDSKDSTYSLSSTLTLSKADYEKHKVYACEVTHQGLSSPVTKSFNRGEC | 0.72 | 156 % of control | 218 % of control
7 | heterodimerized antibody GpH7-A5/GpH7-B3 variant P271_01G/GpL16-k0 (antibody, human IgG1, kappa, He Ab: anti-glypican-3 IgG1, alteration in one H chain only; also called He Ab) heavy 1: not shown heavy 2: not shown light: DIVMTQSPLSLPVTPGEPASISCQASESLVHSNRNTYLHWYLQKPGQSPQLLIYKVSNRFSGVPDRFSGSGSGTDFTLKISRVEAEDVGVYYCSQNTHVPPTFGQGTKVEIERTVAAPSVFIFPPSDEQLKSGTASVVCLLNNFYPREAKVQWKVDNALQSGNSQESVTEQDSKDSTYSLSSTLTLSKADYEKHKVYACEVTHQGLSSPVTKSFNRGEC | 0.75 | 144 % of control | 193 % of control
